Test results from patent US20100272709A1 (GENERAL HOSPITAL, published 2010).

Molecular target: T1, EYFP-dynK694A fusion (UniProt Q05193 1-864)
T1 construct: also called YFP-K694A; not shown: EYFP tag
T1 sequence (looked up): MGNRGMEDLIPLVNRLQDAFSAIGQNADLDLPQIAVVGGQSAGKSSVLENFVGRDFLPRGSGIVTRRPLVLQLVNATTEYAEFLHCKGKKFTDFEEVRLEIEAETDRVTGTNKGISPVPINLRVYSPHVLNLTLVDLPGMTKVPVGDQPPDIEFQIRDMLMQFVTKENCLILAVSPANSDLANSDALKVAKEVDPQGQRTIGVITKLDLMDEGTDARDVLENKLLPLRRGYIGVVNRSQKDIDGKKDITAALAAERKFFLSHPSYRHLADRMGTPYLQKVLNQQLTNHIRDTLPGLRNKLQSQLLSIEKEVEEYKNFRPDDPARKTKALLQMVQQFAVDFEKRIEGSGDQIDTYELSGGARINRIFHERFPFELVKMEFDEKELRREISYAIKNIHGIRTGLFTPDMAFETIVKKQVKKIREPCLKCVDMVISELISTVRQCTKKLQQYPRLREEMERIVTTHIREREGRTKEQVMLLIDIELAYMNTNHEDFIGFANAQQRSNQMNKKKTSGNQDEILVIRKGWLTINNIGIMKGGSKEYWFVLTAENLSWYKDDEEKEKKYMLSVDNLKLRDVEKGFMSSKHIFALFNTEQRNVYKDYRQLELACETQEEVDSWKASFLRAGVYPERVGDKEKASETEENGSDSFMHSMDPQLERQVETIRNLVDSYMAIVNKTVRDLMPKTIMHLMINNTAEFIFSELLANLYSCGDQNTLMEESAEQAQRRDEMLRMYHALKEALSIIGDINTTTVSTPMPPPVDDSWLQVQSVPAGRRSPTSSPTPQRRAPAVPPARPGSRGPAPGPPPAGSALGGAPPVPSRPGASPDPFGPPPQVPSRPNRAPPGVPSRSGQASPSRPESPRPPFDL
Assay: FLIM/FRET in live COS cells; lifetime of the ECFP donor; self-assembly

B1: ECFP-dynK694A fusion (other, UniProt Q05193 1-864, looked up)
chain: MGNRGMEDLIPLVNRLQDAFSAIGQNADLDLPQIAVVGGQSAGKSSVLENFVGRDFLPRGSGIVTRRPLVLQLVNATTEYAEFLHCKGKKFTDFEEVRLEIEAETDRVTGTNKGISPVPINLRVYSPHVLNLTLVDLPGMTKVPVGDQPPDIEFQIRDMLMQFVTKENCLILAVSPANSDLANSDALKVAKEVDPQGQRTIGVITKLDLMDEGTDARDVLENKLLPLRRGYIGVVNRSQKDIDGKKDITAALAAERKFFLSHPSYRHLADRMGTPYLQKVLNQQLTNHIRDTLPGLRNKLQSQLLSIEKEVEEYKNFRPDDPARKTKALLQMVQQFAVDFEKRIEGSGDQIDTYELSGGARINRIFHERFPFELVKMEFDEKELRREISYAIKNIHGIRTGLFTPDMAFETIVKKQVKKIREPCLKCVDMVISELISTVRQCTKKLQQYPRLREEMERIVTTHIREREGRTKEQVMLLIDIELAYMNTNHEDFIGFANAQQRSNQMNKKKTSGNQDEILVIRKGWLTINNIGIMKGGSKEYWFVLTAENLSWYKDDEEKEKKYMLSVDNLKLRDVEKGFMSSKHIFALFNTEQRNVYKDYRQLELACETQEEVDSWKASFLRAGVYPERVGDKEKASETEENGSDSFMHSMDPQLERQVETIRNLVDSYMAIVNKTVRDLMPKTIMHLMINNTAEFIFSELLANLYSCGDQNTLMEESAEQAQRRDEMLRMYHALKEALSIIGDINTTTVSTPMPPPVDDSWLQVQSVPAGRRSPTSSPTPQRRAPAVPPARPGSRGPAPGPPPAGSALGGAPPVPSRPGASPDPFGPPPQVPSRPNRAPPGVPSRSGQASPSRPESPRPPFDL
notes: also called CFP-K694A; not shown: ECFP tag
Mean Lifetime (γ1) ps: 1300 ps
